# In IntAct's records for PubMed 10228159:
# B1: Protein E7 (Human papillomavirus type 16), P03129 (parent)
# chain: MHGDTPTLHEYMLDLQPETTDLYCYEQLNDSSEEEDEIDGPAGQAEPDRAHYNIVTFCCKCDSTLRLCVQSTHVDIRTLEDLLMGTLGIVCPICSQKP
# partner: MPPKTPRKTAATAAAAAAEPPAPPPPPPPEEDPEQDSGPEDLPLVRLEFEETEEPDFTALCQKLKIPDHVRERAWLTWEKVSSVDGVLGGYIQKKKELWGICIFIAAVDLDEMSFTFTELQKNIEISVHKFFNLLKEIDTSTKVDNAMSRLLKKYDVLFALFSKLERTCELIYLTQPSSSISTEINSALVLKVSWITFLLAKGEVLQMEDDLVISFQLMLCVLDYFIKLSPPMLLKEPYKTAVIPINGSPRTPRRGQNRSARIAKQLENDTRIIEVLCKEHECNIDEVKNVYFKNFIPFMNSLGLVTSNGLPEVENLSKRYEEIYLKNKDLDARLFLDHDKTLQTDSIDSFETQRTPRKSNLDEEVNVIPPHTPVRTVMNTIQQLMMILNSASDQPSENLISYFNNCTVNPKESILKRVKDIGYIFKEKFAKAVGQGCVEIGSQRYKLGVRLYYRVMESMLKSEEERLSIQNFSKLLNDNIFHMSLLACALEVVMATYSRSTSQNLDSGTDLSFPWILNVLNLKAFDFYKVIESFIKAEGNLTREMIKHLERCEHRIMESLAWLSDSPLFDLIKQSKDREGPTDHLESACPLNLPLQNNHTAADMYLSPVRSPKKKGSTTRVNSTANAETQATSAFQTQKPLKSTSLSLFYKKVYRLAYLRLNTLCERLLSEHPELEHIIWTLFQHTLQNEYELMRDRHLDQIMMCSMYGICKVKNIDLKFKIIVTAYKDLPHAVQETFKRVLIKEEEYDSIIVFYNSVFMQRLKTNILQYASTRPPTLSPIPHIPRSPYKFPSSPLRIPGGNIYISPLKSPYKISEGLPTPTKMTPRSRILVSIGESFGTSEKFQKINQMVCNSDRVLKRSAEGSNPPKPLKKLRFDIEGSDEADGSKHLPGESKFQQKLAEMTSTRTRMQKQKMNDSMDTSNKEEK
# B2: Protein E7 (Human papillomavirus type 16), P03129 (parent)
# chain: B1 chain
# Variants of: B1
# Settings: with rb_human RB1, P06400
row,Variant,effect of a mutation on the interaction
1,L67R,decreasing interaction

# Variants of: B2
# Settings: with chd4_human CHD4, Q14839
# chd4_human CHD4, Q14839, sequence (Q14839 whole entry): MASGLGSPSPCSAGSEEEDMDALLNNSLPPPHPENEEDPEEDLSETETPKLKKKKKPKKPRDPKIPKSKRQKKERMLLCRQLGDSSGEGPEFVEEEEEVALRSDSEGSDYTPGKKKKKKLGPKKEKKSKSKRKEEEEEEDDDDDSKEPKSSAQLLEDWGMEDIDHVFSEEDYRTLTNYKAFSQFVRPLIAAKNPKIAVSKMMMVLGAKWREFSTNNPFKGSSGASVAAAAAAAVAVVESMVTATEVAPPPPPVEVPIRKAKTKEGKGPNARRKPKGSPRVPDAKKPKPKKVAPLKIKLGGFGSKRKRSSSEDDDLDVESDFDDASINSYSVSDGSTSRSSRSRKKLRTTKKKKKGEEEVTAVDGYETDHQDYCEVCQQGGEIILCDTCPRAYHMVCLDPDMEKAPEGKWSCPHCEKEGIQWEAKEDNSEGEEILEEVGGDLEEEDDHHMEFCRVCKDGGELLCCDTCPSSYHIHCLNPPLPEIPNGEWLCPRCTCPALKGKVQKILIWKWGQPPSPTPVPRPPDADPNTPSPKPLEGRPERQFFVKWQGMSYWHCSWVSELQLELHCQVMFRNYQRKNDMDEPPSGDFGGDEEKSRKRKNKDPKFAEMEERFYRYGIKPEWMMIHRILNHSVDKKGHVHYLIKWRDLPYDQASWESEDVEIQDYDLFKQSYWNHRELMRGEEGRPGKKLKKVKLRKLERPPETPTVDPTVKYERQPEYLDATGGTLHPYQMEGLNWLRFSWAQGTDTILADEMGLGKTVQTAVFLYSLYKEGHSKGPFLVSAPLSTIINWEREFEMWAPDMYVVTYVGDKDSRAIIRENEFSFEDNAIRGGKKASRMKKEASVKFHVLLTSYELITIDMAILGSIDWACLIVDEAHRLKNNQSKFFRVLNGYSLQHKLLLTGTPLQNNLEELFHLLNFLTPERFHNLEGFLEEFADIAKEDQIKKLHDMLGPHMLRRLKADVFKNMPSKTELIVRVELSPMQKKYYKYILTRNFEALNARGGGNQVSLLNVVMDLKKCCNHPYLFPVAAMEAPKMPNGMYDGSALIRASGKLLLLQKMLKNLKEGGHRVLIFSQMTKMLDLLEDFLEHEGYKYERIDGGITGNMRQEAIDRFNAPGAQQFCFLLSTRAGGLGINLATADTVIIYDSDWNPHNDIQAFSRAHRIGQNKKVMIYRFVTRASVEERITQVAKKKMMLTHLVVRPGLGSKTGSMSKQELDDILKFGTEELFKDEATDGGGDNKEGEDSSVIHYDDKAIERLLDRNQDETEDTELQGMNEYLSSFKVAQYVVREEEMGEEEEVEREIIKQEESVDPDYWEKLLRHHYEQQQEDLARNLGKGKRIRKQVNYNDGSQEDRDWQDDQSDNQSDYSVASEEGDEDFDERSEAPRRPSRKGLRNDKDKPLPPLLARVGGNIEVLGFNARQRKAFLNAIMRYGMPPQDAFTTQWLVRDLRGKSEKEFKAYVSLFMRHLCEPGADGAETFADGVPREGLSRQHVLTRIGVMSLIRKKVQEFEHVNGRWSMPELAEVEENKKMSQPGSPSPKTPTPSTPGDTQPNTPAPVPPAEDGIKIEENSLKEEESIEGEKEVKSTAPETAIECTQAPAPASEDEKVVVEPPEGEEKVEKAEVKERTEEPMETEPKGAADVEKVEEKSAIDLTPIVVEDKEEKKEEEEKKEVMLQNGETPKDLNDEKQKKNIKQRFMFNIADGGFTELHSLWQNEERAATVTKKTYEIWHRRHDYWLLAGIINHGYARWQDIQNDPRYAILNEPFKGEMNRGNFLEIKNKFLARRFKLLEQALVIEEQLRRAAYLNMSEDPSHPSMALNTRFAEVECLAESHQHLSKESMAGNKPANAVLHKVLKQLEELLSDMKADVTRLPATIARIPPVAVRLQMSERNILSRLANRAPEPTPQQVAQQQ
row,Variant,effect of a mutation on the interaction
1,L67R,decreasing interaction
